Test results from doi:10.1101/655696.
Each block holds one substance with its values, some of them ahead of it.

Key:
[1] = target: mature 30S ribosomal subunit (MRE600) (E. coli (endogenous in MRE600)) (UniProt P0AG67); assay: ultrafiltration assay
[2] = target: pre-30S particles from the ΔrbfA strain (BX41) (E. coli (endogenous in BX41)); assay: ultrafiltration assay
[3] = target: mature 30S ribosomal subunit (MRE600) (E. coli (endogenous in MRE600)) (UniProt P0AG67); assay: co-sedimentation + other: ultrafiltration assay
[4] = target: mature 30S ribosomal subunit (MRE600) (E. coli (endogenous in MRE600)) (UniProt P0AG67); assay: co-sedimentation

average fold change in bound IF3 over background [1]: 2.2 fold
average fold change in bound IF3 over background [2]: 1.9 fold
Substance: Cy3-IF3 (from UniProt P0A707 1-180) (natural protein)

t1/2 of the complex [3]: > 30 min
half-life of the complex [2]: > 60 min
Substance: Cy5-RbfA (ribosome binding factor A labelled with Cy5 at position 2) (from UniProt P0A7G2 1-133) (natural protein)

decrease of Cy5-RbfA fluorescence in the pelleted fraction with 4 µM IF3 [4]: > 80%
Substance: Initiation factor 3 (IF3), wild type (from UniProt P0A707 1-180) (natural protein)
